1 substance from paper PMC10362037 can be followed below.

In the assay the target is SARS-CoV-2 Omicron (B.1.1.529) Spike S1 (Sino Biological, 40591-V08H41) (SARS-CoV-2). Briefly: SPR. (Surface plasmon resonance follows binding to a sensor surface in real time, without labels.)

For the substance “Human integrin αvβ3 (R&D Systems, 3817-AV-050) (from UniProt P06756 31-1048; P05106 27-718) (complex)”, the Kd (as a rule, the concentration at which binding is half-saturated) came out at 0.0694 µM.
